Molecular target: the molecule itself
Test: SDS-PAGE with western blot

B1: His-tagged ectromelia virus strain Moscow gene 141 profilin homolog (ECTV-PH) (natural protein)
chain: MAAEWHKIIEDVSKNNKFEDAAIVDYKTKKNVLAAIPNRTFAKIIPGEVIALITNRNILKPRIGQKFFIVYTNSLMDENTYTMELLTGYAPVSPIVIARTHTALIFLMGKPTTSRREVYRTCRDYATNVRATGN
notes: also called ECTV-Moscow 141; His-ECTV-PH; not shown: His6, N-terminal, kept
stoichiometry N: 2

Reference: article PMC1964790, “An ectromelia virus profilin homolog interacts with cellular tropomyosin and viral A-type inclusion protein” (Virology Journal, 2007)
